Test results as given in the supplement of paper PMC12458215.
± gives the uncertainty stated by the source.

tested on: HEK293T; experiment: plasma membrane surface immunostaining intensity (anti-HA, deep receptor scanning) (arbitrary fluorescence units); higher = higher plasma membrane expression; settings: GPCR class: A

In order of rising “plasma membrane surface immunostaining intensity” value:
1. MESSGNPESTTFFYYDLQSQPCENQAWVFATLATTVLYCLVFLLSLVGNSLVLWVLVKYESLESLTNIFILNLCLSDLVFACLLPVWISPYHWGWVLGDFLCKLLNMIFSISLYSSIFFLTIMTIHRYLSVVSPLSTLRVPTLRCRVLVTMAVWVASILSSILDTIFHKVLSSGCDYSELTWYLTSVYQHNLFFLLSLGIILFCYVEILRTLFRSRSKRRHRTVKLIFAIVVAYFLSWGPYNFTLFLQTLFRTQIIRSCEAKQQLEYALLICRNLAFSHCCFNPVLYVFVGVKFRTHLKHVLRQFWFCRLQAPSPASIPHSPGAFAYEGASFY [XCR1]  190 ± 16
2. MAVQGSQRRLLGSLNSTPTAIPQLGLAANQTGARCLEVSISDGLFLSLGLVSLVENALVVATIAKNRNLHSPMYCFICCLALSDLLVSGSNVLETAVILLLEAGALVARAAVLQQLDNVIDVITCSSMLSSLCFLGAIAVDRYISIFYALRYHSIVTLPRARRAVAAIWVASVVFSTLFIAYYDHVAVLLCLVVFFLAMLVLMAVLYVHMLARACQHAQGIARLHKRQRPVHQGFGLKGAVTLTILLGIFFLCWGPFFLHLTLIVLCPEHPTCGCIFKNFNLFLALIICNAIIDPLIYAFHSQELRRTLKEVLTCSW [MC1R]  299 ± 43
3. MEPSATPGAQMGVPPGSREPSPVPPDYEDEFLRYLWRDYLYPKQYEWVLIAAYVAVFVVALVGNTLVCLAVWRNHHMRTVTNYFIVNLSLADVLVTAICLPASLLVDITESWLFGHALCKVIPYLQAVSVSVAVLTLSFIALDRWYAICHPLLFKSTARRARGSILGIWAVSLAIMVPQAAVMECSSVLPELANRTRLFSVCDERWADDLYPKIYHSCFFIVTYLAPLGLMAMAYFQIFRKLWGRQIPGTTSALVRNWKRPSDQLGDLEQGLSGEPQPRARAFLAEVKQMRARRKTAKMLMVVLLVFALCYLPISVLNVLKRVFGMFRQASDREAVYACFTFSHWLVYANSAANPIIYNFLSGKFREQFKAAFSCCLPGLGPCGSLKAPSPRSSASHKSLSLQSRCSISKISEHVVLTSVTTVLP [HCRTR1]  1070 ± 130
4. MNEDLKVNLSGLPRDYLDAAAAENISAAVSSRVPAVEPEPELVVNPWDIVLCTSGTLISCENAIVVLIIFHNPSLRAPMFLLIGSLALADLLAGIGLITNFVFAYLLQSEATKLVTIGLIVASFSASVCSLLAITVDRYLSLYYALTYHSERTVTFTYVMLVMLWGTSICLGLLPVMGWNCLRDESTCSVVRPLTKNNAAILSVSFLFMFALMLQLYIQICKIVMRHAHQIALQHHFLATSHYVTTRKGVSTLAIILGTFAACWMPFTLYSLIADYTYPSIYTYATLLPATYNSIINPVIYAFRNQEIQKALCLICCGCIPSSLAQRARSPSDV [GPR12]  1260 ± 200
5. MDLGKPMKSVLVVALLVIFQVCLCQDEVTDDYIGDNTTVDYTLFESLCSKKDVRNFKAWFLPIMYSIICFVGLLGNGLVVLTYIYFKRLKTMTDTYLLNLAVADILFLLTLPFWAYSAAKSWVFGVHFCKLIFAIYKMSFFSGMLLLLCISIDRYVAIVQAVSAHRHRARVLLISKLSCVGIWILATVLSIPELLYSDLQRSSSEQAMRCSLITEHVEAFITIQVAQMVIGFLVPLLAMSFCYLVIIRTLLQARNFERNKAIKVIIAVVVVFIVFQLPYNGVVLAQTVANFNITSSTCELSKQLNIAYDVTYSLACVRCCVNPFLYAFIGVKFRNDLFKLFKDLGCLSQEQLRQWSSCRHIRRSSMSVEAETTTTFSP [CCR7]  2440 ± 380
6. MFRQEQPLAEGSFAPMGSLQPDAGNASWNGTEAPGGGARATPYSLQVTLTLVCLAGLLMLLTVFGNVLVIIAVFTSRALKAPQNLFLVSLASADILVATLVIPFSLANEVMGYWYFGKAWCEIYLALDVLFCTSSIVHLCAISLDRYWSITQAIEYNLKRTPRRIKAIIITVWVISAVISFPPLISIEKKGGGGGPQPAEPRCEINDQKWYVISSCIGSFFAPCLIMILVYVRIYQIAKRRTRVPPSRRGPDAVAAPPGGTERRPNGLGPERSAGPGGAEAEPLPTQLNGAPGEPAPAGPRDTDALDLEESSSSDHAERPPGPRRPERGPRGKGKARASQVKPGDSLPRRGPGATGIGTPAAGPGEERVGAAKASRWRGRQNREKRFTFVLAVVIGVFVVCWFPFFFTYTLTAVGCSVPRTLFKFFFWFGYCNSSLNPVIYTIFNHDFRRAFKKILCRGDRKRIV [ADRA2A]  2600 ± 560

same assay, conditions: GPCR class: A (Olfactory)

In order of rising “plasma membrane surface immunostaining intensity” value:
1. MEEENATLLTEFVLTGFLYQPQWKIPLFLAFLVIYLITIMGNLGLIAVIWKDPHLHIPMYLLLGNLAFVDAWISSTVTPKMLNNFLAKSKMISLSECKIQFFSFAISVTTECFLLATMAYDRYVAICKPLLYPAIMTNGLCIRLLILSYVGGILHALIHEGFLFRLTFCNSNIVHHIYCDTIPLSKISCTDSSINFLMVFIFSGSIQVFSIVTILVSYTFVLFAILKKKSDKGVRKAFSTCGAHLFSVSLYYGPLLFIYVGPASPQADDQDMVEPLFYTVIIPLLNPIIYSLRNKQVTVSFTKMLKKHVKVSY [OR5H1]  124 ± 20
2. MESNQTWITEVILLGFQVDPALELFLFGFFLLFYSLTLMGNGIILGLIYLDSRLHTPMYVFLSHLAIVDMSYASSTVPKMLANLVMHKKVISFAPCILQTFLYLAFAITECLILVMMCYDRYVAICHPLQYTLIMNWRVCTVLASTCWIFSFLLALVHITLILRLPFCGPQKINHFFCQIMSVFKLACADTRLNQVVLFAGSAFILVGPLCLVLVSYLHILVAILRIQSGEGRRKAFSTCSSHLCVVGLFFGSAIVMYMAPKSSHSQERRKILSLFYSLFNPILNPLIYSLRNAEVKGALKRVLWKQRSM [OR2A12]  126 ± 28
3. MGSFNTSFEDGFILVGFSDWPQLEPILFVFIFIFYSLTLFGNTIIIALSWLDLRLHTPMYFFLSHLSLLDLCFTTSTVPQLLINLCGVDRTITRGGCVAQLFIYLALGSTECVLLVVMAFDRYAAVCRPLHYMAIMHPHLCQTLAIASWGAGFVNSLIQTGLAMAMPLCGHRLNHFFCEMPVFLKLACADTEGTEAKMFVARVIVVAVPAALILGSYVHIAHAVLRVKSTAGRRKAFGTCGSHLLVVFLFYGSAIYTYLQSIHNYSEREGKFVALFYTIITPILNPLIYTLRNKDVKGALWKVLWRGRDSG [OR2Y1]  132 ± 17
4. MGFLSPMHPCRPPTQRRMAAGNHSTVTEFILKGLTKRADLQLPLFLLFLGIYLVTIVGNLGMITLICLNSQLHTPMYYFLSNLSLMDLCYSSVITPKMLVNFVSEKNIISYAGCMSQLYFFLVFVIAECYMLTVMAYDRYVAICHPLLYNIIMSHHTCLLLVAVVYAIGLIGSTIETGLMLKLPYCEHLISHYFCDILPLMKLSCSSTYDVEMTVFFSAGFNIIVTSLTVLVSYTFILSSILGISTTEGRSKAFSTCSSHLAAVGMFYGSTAFMYLKPSTISSLTQENVASVFYTTVIPMLNPLIYSLRNKEVKAAVQKTLRGKLF [OR8A1]  191 ± 82
5. MAVGRNNTIVTKFILLGLSDHPQMKIFLFMLFLGLYLLTLAWNLSLIALIKMDSHLHMPMYFFLSNLSFLDICYVSSTAPKMLSDIITEQKTISFVGCATQYFVFCGMGLTECFLLAAMAYDRYAAICNPLLYTVLISHTLCLKMVVGAYVGGFLSSFIETYSVYQHDFCGPYMINHFFCDLPPVLALSCSDTFTSEVVTFIVSVVVGIVSVLVVLISYGYIVAAVVKISSATGRTKAFSTCASHLTAVTLFYGSGFFMYMRPSSSYSLNRDKVVSIFYALVIPVVNPIIYSFRNKEIKNAMRKAMERDPGISHGGPFIFMTLG [OR5A2]  267 ± 110
6. MLRNGSIVTEFILVGFQQSSTSTRALLFALFLALYSLTMAMNGLIIFITSWTDPKLNSPMYFFLGHLSLLDVCFITTTIPQMLIHLVVRDHIVSFVCCMTQMYFVFCVGVAECILLAFMAYDRYVAICYPLNYVPIISQKVCVRLVGTAWFFGLINGIFLEYISFREPFRRDNHIESFFCEAPIVIGLSCGDPQFSLWAIFADAIVVILSPMVLTVTSYVHILATILSKASSSGRGKTFSTCASHLTVVIFLYTSAMFSYMNPHSTHGPDKDKPFSLLYTIITPMCNPIIYSFRNKEIKEAMVRALGRTRLAQPQSV [OR10AD1]  326 ± 140
7. MEIVSTGNETITEFVLLGFYDIPELHFLFFIVFTAVYVFIIIGNMLIIVAVVSSQRLHKPMYIFLANLSFLDILYTSAVMPKMLEGFLQEATISVAGCLLQFFIFGSLATAECLLLAVMAYDRYLAICYPLHYPLLMGPRRYMGLVVTTWLSGFVVDGLVVALVAQLRFCGPNHIDQFYCDFMLFVGLACSDPRVAQVTTLILSVFCLTIPFGLILTSYARIVVAVLRVPAGASRRRAFSTCSSHLAVVTTFYGTLMIFYVAPSAVHSQLLSKVFSLLYTVVTPLFNPVIYTMRNKEVHQALRKILCIKQTETLD [OR11A1]  398 ± 120

same assay, conditions: GPCR class: B

For “MGTARIAPGLALLLCCPVLSSAYALVDADDVMTKEEQIFLLHRAQAQCEKRLKEVLQRPASIMESDKGWTSASTSGKPRKDKASGKLYPESEEDKEAPTGSRYRGRPCLPEWDHILCWPLGAPGEVVAVPCPDYIYDFNHKGHAYRRCDRNGSWELVPGHNRTWANYSECVKFLTNETREREVFDRLGMIYTVGYSVSLASLTVAVLILAYFRRLHCTRNYIHMHLFLSFMLRAVSIFVKDAVLYSGATLDEAERLTEEELRAIAQAPPPPATAAAGYAGCRVAVTFFLYFLATNYYWILVEGLYLHSLIFMAFFSEKKYLWGFTVFGWGLPAVFVAVWVSVRATLANTGCWDLSSGNKKWIIQVPILASIVLNFILFINIVRVLATKLRETNAGRCDTRQQYRKLLKSTLVLMPLFGVHYIVFMATPYTEVSGTLWQVQMHYEMLFNSFQGFFVAIIYCFCNGEVQAEIKKSWSRWTLALDFKRKARSGSSSYSYGPMVSHTSVTNVGPRVGLGLPLSPRLLPTATTNGHPQLPGHAKPGTPALETLETTPPAMAAPKDDGFLNGSCSGLDEEASGPERPPALLQEEWETVM [PTH1R]”, the “plasma membrane surface immunostaining intensity” value was 770 ± 69.

same assay, conditions: GPCR class: C

With “MAFLIILITCFVIILATSQPCQTPDDFVAATSPGHIIIGGLFAIHEKMLSSEDSPRRPQIQECVGFEISVFLQTLAMIHSIEMINNSTLLPGVKLGYEIYDTCTEVTVAMAATLRFLSKFNCSRETVEFKCDYSSYMPRVKAVIGSGYSEITMAVSRMLNLQLMPQVGYESTAEILSDKIRFPSFLRTVPSDFHQIKAMAHLIQKSGWNWIGIITTDDDYGRLALNTFIIQAEANNVCIAFKEVLPAFLSDNTIEVRINRTLKKIILEAQVNVIVVFLRQFHVFDLFNKAIEMNINKMWIASDNWSTATKITTIPNVKKIGKVVGFAFRRGNISSFHSFLQNLHLLPSDSHKLLHEYAMHLSACAYVKDTDLSQCIFNHSQRTLAYKANKAIERNFVMRNDFLWDYAEPGLIHSIQLAVFALGYAIRDLCQARDCQNPNAFQPWELLGVLKNVTFTDGWNSFHFDAHGDLNTGYDVVLWKEINGHMTVTKMAEYDLQNDVFIIPDQETKNEFRNLKQIQSKCSKECSPGQMKKTTRSQHICCYECQNCPENHYTNQTDMPHCLLCNNKTHWAPVRSTMCFEKEVEYLNWNDSLAILLLILSLLGIIFVLVVGIIFTRNLNTPVVKSSGGLRVCYVILLCHFLNFASTSFFIGEPQDFTCKTRQTMFGVSFTLCISCILTKSLKILLAFSFDPKLQKFLKCLYRPILIIFTCTGIQVVICTLWLIFAAPTVEVNVSLPRVIILECEEGSILAFGTMLGYIAILAFICFIFAFKGKYENYNEAKFITFGMLIYFIAWITFIPIYATTFGKYVPAVEIIVILISNYGILYCTFIPKCYVIICKQEINTKSAFLKMIYSYSSHSVSSIALSPASLDSMSGNVTMTNPSSSGKSATWQKSKDLQAQAFAHICRENATSVSKTLPRKRMSSI [GPRC6A]” the “plasma membrane surface immunostaining intensity” value was 158 ± 24.
